Measurements: US20260242735A1 (UNIVERSIT T BASEL, published 2026)

B1: Refmab #2 (antibody, human IgG1, V domains shown)
VH: QVQLVQSGAEVKKPGSSVKVSCKASGGTFSDYAISWVRQAPGQGLEWMGRIIPILGVADYAQKFQGRVTITADKSTRTAYMELSSLRSEDTAVYYCARNWADAFDIWGQGTMVTVSS
VL: DIQLTQSPSSLSASVGDRVTITCRASQGISSVLAWYQQKPGKAPKLLIYDASSLESGVPSRFSGSGSGTDFTLTISSLQPEDFATYYCQQFDSSITFGQGTKLEIK
notes: Tested in IgG format; human IgG1 Fc silent (PG-LALA)
B2: Refmab #4 (antibody, human IgG1, V domains shown)
VH: QVQLVQSGAEVKKPGESVKVSCKASGYTFTNYGMNWVKQAPGQGLEWMGWINTYTGEPTYADKFQGRVTMTTDTSTSTAYMEIRNLGGDDTAVYYCARWSWSDGYYVYFDYWGQGTSVTVSS
VL: DIVMTQSPDSLTVSLGERTTINCKSSQSVLDSSTNKNSLAWYQQKPGQPPKLLLSWASTRESGIPDRFSGSGSGTDFTLTIDSPQPEDSATYYCQQSAHFPITFGQGTRLEIK
notes: as for B1
B3: Refmab #1 (antibody, human IgG1, V domains shown)
VH: EVQLVQSGAEVKKPGSSVKVSCKASGYTITDSNIHWVRQAPGQSLEWIGYIYPYNGGTDYNQKFKNRATLTVDNPTNTAYMELSSLRSEDTAFYYCVNGNPWLAYWGQGTLVTVSS
VL: DIQLTQSPSTLSASVGDRVTITCRASESLDNYGIRFLTWFQQKPGKAPKLLMYAASNQGSGVPSRFSGSGSGTEFTLTISSLQPDDFATYYCQQTKEVPWSFGQGTKVEVK
notes: Tested in IgG format; human IgG1 (Absolute Antibody hP67.6, Cat. No. Ab00283-10.0); also called hP67.6
B4: Refmab #3 (antibody, human IgG1, V domains shown)
VH: QVQLVQSGAEVKKPGSSVKVSCKASGYTFTDYNMHWVRQAPGQGLEWIGYIYPYNGGTGYNQKFKSKATITADESTNTAYMELSSLRSEDTAVYYCARGRPAMDYWGQGTLVTVSS
VL: DIQMTQSPSSLSASVGDRVTITCRASESVDNYGISFMNWFQQKPGKAPKLLIYAASNQGSGVPSRFSGSGSGTDFTLTISSLQPDDFATYYCQQSKEVPWTFGQGTKVEIK
notes: as for B1

What follows are binders tested against human CD33 variant I47E (human, UniProt P20138 18-364) (assay: flow cytometry, IgG on cells expressing the mutant).
Sequence of human CD33 variant I47E (P20138 18-364 I47E limits assumed): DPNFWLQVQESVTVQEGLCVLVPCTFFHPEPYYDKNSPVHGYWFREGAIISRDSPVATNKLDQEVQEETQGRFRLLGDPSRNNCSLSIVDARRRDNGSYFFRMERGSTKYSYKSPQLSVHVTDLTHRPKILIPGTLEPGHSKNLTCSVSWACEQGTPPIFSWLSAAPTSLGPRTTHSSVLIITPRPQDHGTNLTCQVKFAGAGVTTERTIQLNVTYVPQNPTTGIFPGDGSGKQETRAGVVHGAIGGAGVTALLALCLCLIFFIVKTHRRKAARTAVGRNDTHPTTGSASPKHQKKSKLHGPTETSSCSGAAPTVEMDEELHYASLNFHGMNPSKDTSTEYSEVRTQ
Protocol: (§1) An alanine scan on human CD33 was performed to the determine the residues on CD33 that are involved in binding to the antibodies investigated. […] Briefly, a mutation library of CD33 was created by high-throughput, site-directed mutagenesis. Each residue was individually mutated to alanine, with alanine codons mutated to serine. The mutant library was arrayed in 384-well microplates and transiently transfected into HEK293-T. Following transfection, cells were incubated with the indicated antibodies (IgG or Fab) at concentrations pre-determined using an independent immunofluorescence titration curve on wild type CD33. […] Binding of each antibody to each mutant clone was determined in duplicates. For each point, background fluorescence was subtracted from the raw data, which were then normalized to antibody reactivity with wild type CD33.
(§2) Antibodies were screened for binding to the human CD33 variants in IgG format. […] For each mutation, background fluorescence was subtracted from the raw data, which were then normalized to antibody reactivity with wild-type CD33.

Mean % WT Binding | Binder
0.5 % of WT | B1
54.8 % of WT | B2
101 % of WT | B3
109 % of WT | B4

These binders were tested against human CD33 variant I47R (human, UniProt P20138 18-364) (assay: flow cytometry, IgG on cells expressing the mutant).
Sequence of human CD33 variant I47R (P20138 18-364 I47R limits assumed): as the sequence (P20138 18-364 I47E limits assumed) above, with E30R counted along it
Protocol: as §1, §2

Mean % WT Binding | Binder
1.6 % of WT | B1
66.2 % of WT | B2
96.1 % of WT | B3
83.2 % of WT | B4

Each binder was assayed against human CD33 variant Y49V (human, UniProt P20138 18-364) (assay: flow cytometry, IgG on cells expressing the mutant).
Sequence of human CD33 variant Y49V (P20138 18-364 Y49V limits assumed): as the sequence (P20138 18-364 I47E limits assumed) above, with E30I, Y32V counted along it
Protocol: as §1, §2

Mean % WT Binding | Binder
90.4 % of WT | B1
46.9 % of WT | B2
101 % of WT | B3
106 % of WT | B4

What follows are binders tested against human CD33 variant Y49G (human, UniProt P20138 18-364) (assay: flow cytometry, IgG on cells expressing the mutant).
Sequence of human CD33 variant Y49G (P20138 18-364 Y49G limits assumed): as the sequence (P20138 18-364 I47E limits assumed) above, with E30I, Y32G counted along it
Protocol: as §1, §2

Mean % WT Binding | Binder
54.9 % of WT | B2
107 % of WT | B3
108 % of WT | B4

What follows are binders tested against human CD33 variant Y49L (human, UniProt P20138 18-364) (assay: flow cytometry, IgG on cells expressing the mutant).
Sequence of human CD33 variant Y49L (P20138 18-364 Y49L limits assumed): as the sequence (P20138 18-364 I47E limits assumed) above, with E30I, Y32L counted along it
Protocol: as §1, §2

Mean % WT Binding | Binder
108 % of WT | B1
110 % of WT | B2
100 % of WT | B3
93.8 % of WT | B4

What follows are binders tested against human CD33 variant Y50G (human, UniProt P20138 18-364) (assay: flow cytometry, IgG on cells expressing the mutant).
Sequence of human CD33 variant Y50G (P20138 18-364 Y50G limits assumed): as the sequence (P20138 18-364 I47E limits assumed) above, with E30I, Y33G counted along it
Protocol: as §1, §2

Mean % WT Binding | Binder
104 % of WT | B1
4 % of WT | B2
92.8 % of WT | B3
91.2 % of WT | B4

Each binder was assayed against human CD33 variant D51K (human, UniProt P20138 18-364) (assay: flow cytometry, IgG on cells expressing the mutant).
Sequence of human CD33 variant D51K (P20138 18-364 D51K limits assumed): as the sequence (P20138 18-364 I47E limits assumed) above, with E30I, D34K counted along it
Protocol: as §1, §2

Mean % WT Binding | Binder
2.7 % of WT | B1
42 % of WT | B2
90.7 % of WT | B3
88.9 % of WT | B4

What follows are binders tested against human CD33 variant K52G (human, UniProt P20138 18-364) (assay: flow cytometry, IgG on cells expressing the mutant).
Sequence of human CD33 variant K52G (P20138 18-364 K52G limits assumed): as the sequence (P20138 18-364 I47E limits assumed) above, with E30I, K35G counted along it
Protocol: as §1, §2

Mean % WT Binding | Binder
25.4 % of WT | B1
69.5 % of WT | B2
98.8 % of WT | B3
106 % of WT | B4

These binders were tested against human CD33 variant K52S (human, UniProt P20138 18-364) (assay: flow cytometry, IgG on cells expressing the mutant).
Sequence of human CD33 variant K52S (P20138 18-364 K52S limits assumed): as the sequence (P20138 18-364 I47E limits assumed) above, with E30I, K35S counted along it
Protocol: as §1, §2

Mean % WT Binding | Binder
113 % of WT | B1
85 % of WT | B2
84.3 % of WT | B3
96.8 % of WT | B4

The binders below were run against human CD33 variant K52Y (human, UniProt P20138 18-364) (assay: flow cytometry, IgG on cells expressing the mutant).
Sequence of human CD33 variant K52Y (P20138 18-364 K52Y limits assumed): as the sequence (P20138 18-364 I47E limits assumed) above, with E30I, K35Y counted along it
Protocol: as §1, §2

Mean % WT Binding | Binder
21 % of WT | B1
20.7 % of WT | B2
45 % of WT | B3
41.7 % of WT | B4

These binders were tested against human CD33 variant V56R (human, UniProt P20138 18-364) (assay: flow cytometry, IgG on cells expressing the mutant).
Sequence of human CD33 variant V56R (P20138 18-364 V56R limits assumed): as the sequence (P20138 18-364 I47E limits assumed) above, with E30I, V39R counted along it
Protocol: as §1, §2

Mean % WT Binding | Binder
107 % of WT | B1
99.4 % of WT | B2
98.5 % of WT | B3
97.7 % of WT | B4

These binders were tested against human CD33 variant R122G (human, UniProt P20138 18-364) (assay: flow cytometry, IgG on cells expressing the mutant).
Sequence of human CD33 variant R122G (P20138 18-364 R122G limits assumed): as the sequence (P20138 18-364 I47E limits assumed) above, with E30I, R105G counted along it
Protocol: as §1, §2

Mean % WT Binding | Binder
12.2 % of WT | B1
91.3 % of WT | B2
109 % of WT | B3
114 % of WT | B4
